Patent US10239925B2, “Peptides and combination of peptides for use in immunotherapy against ovarian cancer and other cancers” (IMMATICS BIOTECHNOLOGIES GMBH, priority 2015, dated 2019)

Molecular target: HLA-A*02:01 (Homo sapiens, UniProt P04439, D140Y/D185E/D98H/E176V/E277Q/G131W/G231S/I119V/I121R/I166T/I218V/L300P/L318F/N151K/N90K/P208A/P217A/Q86G/Q94H/R138H/R169H/T345S)
Assay: MHC binding assay (UV-ligand exchange, anti-β2m ELISA, peptide exchange yield)
Conditions: binding to HLA-A*02:01
Summary of the method: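 Yield of stabilized complexes quantified via the β2m light chain in an ELISA (streptavidin capture, 100-fold diluted monomers, HRP anti-β2m 2 ug/ml at 37 °C, TMB, A450). The complexes come from UV-triggered replacement of a photocleavable ligand by the candidate peptide.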

Substance	Peptide exchange (MHC class I binding score, peptide exchange yield)
573 (ILVANAIVGV; listed as Homo sapiens) [compound 573]	“+++” (>50 = +++)
574 (YLLQEPPRTV; listed as Homo sapiens) [compound 574]	“++” (>20% = ++)
579 (NLMEMVAQL; listed as Homo sapiens) [compound 579]	“++” (>20% = ++)
585 (ALWDLAADKQTL; listed as Homo sapiens) [compound 585]	“++++” (>75% = ++++)
587 (VMNDRLYAI; listed as Homo sapiens) [compound 587]	“+++” (>50 = +++)
588 (SLLPLSHLV; listed as Homo sapiens) [compound 588]	“+++” (>50 = +++)
595 (VLLSIYPRV; listed as Homo sapiens) [compound 595]	“+++” (>50 = +++)
596 (ALLDQTKTLAESAL; listed as Homo sapiens) [compound 596]	“+++” (>50 = +++)
598 (FLFPHSVLV; listed as Homo sapiens) [compound 598]	“+++” (>50 = +++)
600 (ALAAPDIVPAL; listed as Homo sapiens) [compound 600]	“+++” (>50 = +++)
601 (SAFPFPVTV; listed as Homo sapiens) [compound 601]	“+++” (>50 = +++)
602 (YLLEQIKLIEV; listed as Homo sapiens) [compound 602]	“++++” (>75% = ++++)
604 (SILDRDDIFV; listed as Homo sapiens) [compound 604]	“+++” (>50 = +++)
605 (KLYEAVPQL; listed as Homo sapiens) [compound 605]	“+++” (>50 = +++)
606 (ALWETEVYI; listed as Homo sapiens) [compound 606]	“+++” (>50 = +++)
612 (YLYNEGLSV; listed as Homo sapiens) [compound 612]	“+++” (>50 = +++)
613 (RLLPPGAVVAV; listed as Homo sapiens) [compound 613]	“+++” (>50 = +++)
614 (LLLPDQPPYHL; listed as Homo sapiens) [compound 614]	“+++” (>50 = +++)
615 (VLPPDTDPA; listed as Homo sapiens) [compound 615]	“++” (>20% = ++)
617 (ALMYESEKVGV; listed as Homo sapiens) [compound 617]	“+++” (>50 = +++)
618 (VLFDSESIGIYV; listed as Homo sapiens) [compound 618]	“+++” (>50 = +++)
619 (ALQDRVPLA; listed as Homo sapiens) [compound 619]	“+++” (>50 = +++)
620 (KLLNKIYEA; listed as Homo sapiens) [compound 620]	“++++” (>75% = ++++)
621 (VLMDRLPSLL; listed as Homo sapiens) [compound 621]	“++++” (>75% = ++++)
622 (RLLGEEVVRVLQA; listed as Homo sapiens) [compound 622]	“+++” (>50 = +++)

Other lines, results leading:

Peptide exchange (MHC class I binding score, peptide exchange yield)	Substance
“+++” (>50 = +++)	572 (ALADLIEKELSV; listed as Homo sapiens) [compound 572]
“+++” (>50 = +++)	575 (YLISQVEGHQV; listed as Homo sapiens) [compound 575]
“++++” (>75% = ++++)	576 (ILLNNSGQIKL; listed as Homo sapiens) [compound 576]
“+++” (>50 = +++)	577 (VMFEDGVLMRL; listed as Homo sapiens) [compound 577]
“+++” (>50 = +++)	578 (FLDPGGPMMKL; listed as Homo sapiens) [compound 578]
“++” (>20% = ++)	580 (LLMENAERV; listed as Homo sapiens) [compound 580]
“+++” (>50 = +++)	582 (TLCDVILMV; listed as Homo sapiens) [compound 582]
“+++” (>50 = +++)	583 (ILANDGVLLAA; listed as Homo sapiens) [compound 583]
“+++” (>50 = +++)	584 (ALAEVAAMENV; listed as Homo sapiens) [compound 584]
“+++” (>50 = +++)	586 (KLKPGDLVGV; listed as Homo sapiens) [compound 586]
“+++” (>50 = +++)	589 (KLYPQLPAEI; listed as Homo sapiens) [compound 589]
“++” (>20% = ++)	590 (SLIEKLWQT; listed as Homo sapiens) [compound 590]
“+++” (>50 = +++)	591 (SMAELDIKL; listed as Homo sapiens) [compound 591]
“+++” (>50 = +++)	592 (RLLSAAENFL; listed as Homo sapiens) [compound 592]
“+++” (>50 = +++)	593 (GLPRFGIEMV; listed as Homo sapiens) [compound 593]
“+++” (>50 = +++)	594 (IMLKGDNITL; listed as Homo sapiens) [compound 594]
“+++” (>50 = +++)	597 (KLLEGQVIQL; listed as Homo sapiens) [compound 597]
“+++” (>50 = +++)	599 (YLLNDASLISV; listed as Homo sapiens) [compound 599]
“+++” (>50 = +++)	607 (RLYSGISGLEL; listed as Homo sapiens) [compound 607]
“+++” (>50 = +++)	608 (SLLSVSHAL; listed as Homo sapiens) [compound 608]
“+++” (>50 = +++)	609 (ALWKQLLEL; listed as Homo sapiens) [compound 609]
“+++” (>50 = +++)	610 (LLAPTPYIIGV; listed as Homo sapiens) [compound 610]
“++++” (>75% = ++++)	611 (YLLDDGTLVV; listed as Homo sapiens) [compound 611]
“+++” (>50 = +++)	616 (VLIDEVESL; listed as Homo sapiens) [compound 616]
“+++” (>50 = +++)	623 (YLVEDIQHI; listed as Homo sapiens) [compound 623]
